Changes are numbered by the printed parent chain. One block for each binder: values may come before it.
Key:
FLRT3-LRR F160A = target: T1, FLRT3-LRR F160A (mouse, UniProt Q8BGT1 29-386, F160A); assay: ITC
T1 sequence (looked up): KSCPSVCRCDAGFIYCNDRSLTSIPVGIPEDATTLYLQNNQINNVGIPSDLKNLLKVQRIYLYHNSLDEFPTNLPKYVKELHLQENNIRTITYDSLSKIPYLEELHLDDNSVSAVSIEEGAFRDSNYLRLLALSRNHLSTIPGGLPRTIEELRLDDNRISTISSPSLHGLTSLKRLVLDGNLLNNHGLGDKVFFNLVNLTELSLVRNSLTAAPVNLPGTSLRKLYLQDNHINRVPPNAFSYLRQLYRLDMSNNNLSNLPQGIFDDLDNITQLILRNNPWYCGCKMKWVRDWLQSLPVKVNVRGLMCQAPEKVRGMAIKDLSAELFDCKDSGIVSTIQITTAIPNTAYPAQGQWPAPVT

FLRT3-LRR R117T = target: T2, FLRT3-LRR R117T (mouse, UniProt Q8BGT1 29-386, R117T, additional N-linked glycosylation at Asn115); assay: ITC
T2 sequence (looked up): T1 sequence (looked up) with R89T, A132F

AUC = target: the molecule itself; assay: AUC

Kd (FLRT3-LRR F160A): 1000 nM | Kd (FLRT3-LRR R117T): 27 nM
B1: LPHN3-OLF (olfactomedin domain of mouse latrophilin 3, amino acids 199-495) (domain or fragment, UniProt Q80TS3 199-495, looked up)
chain: KVFLCPGLLKGVYQSEHLFESDHQSGAWCKDPLQASDKIYYMPWTPYRTDTLTEYSSKDDFIAGRPTTTYKLPHRVDGTGFVVYDGALFFNKERTRNIVKFDLRTRIKSGEAIIANANYHDTSPYRWGGKSDIDLAVDENGLWVIYATEQNNGKIVISQLNPYTLRIEGTWDTAYDKRSASNAFMICGILYVVKSVYEDDDNEATGNKIDYIYNTDQSKDSLVDVPFPNSYQYIAAVDYNPRDNLLYVWNNYHVVKYSLDFGPLDSRSGPVHHGQVSYISPPIHLDSELERPPVRGI

B2: FLRT3-LRR (leucine-rich repeat domain of mouse FLRT3, amino acids 29-386) (domain or fragment, UniProt Q8BGT1 29-386, looked up)
chain: T1 sequence (looked up) with A132F
modifications: N-linked glycosylation (three predicted sites; one N-Acetyl-glucosamine modelled on Asn226)
Kd (AUC): 43300 nM | stoichiometry N (AUC): 2

From paper PMC4930246 (Structure (London, England : 1993), 2015)
